The source of these data is article PMC12524980.

The term stoichiometry N denotes a count of units in the complex or per binding partner.

In this assay the target is PpiC of E. faecium (mature PpiC, residues 25–336) (E. faecium). Description: SEC-MALS; SEC coupled to light scattering (SEC-LS); 500 micrograms loaded on Superdex 200 increase 10/300 GL (PpiC) or Superdex 75 increase 10/300 GL (PpiC^ΔC); 50 mM Tris-HCl, 150 mM NaCl, 5% glycerol, pH 7.8; 0.5 mL/min. In general terms: SEC sorts molecules by how far they enter the pores of the column.

“PpiC of E. faecium (mature PpiC, residues 25–336) (enzyme)” yielded a stoichiometry N of 2.
